Laboratory results taken from IntAct's records for PubMed 23055042.

B1: Protein Bop (Homo sapiens), Q7L3V2 (parent)
chain: MPRGRCRQQGPRIPIWAAANYANAHPWQQMDKASPGVAYTPLVDPWIERPCCGDTVCVRTTMEQKSTASGTCGGKPAERGPLAGHMPSSRPHRVDFCWVPGSDPGTFDGSPWLLDRFLAQLGDYMSFHFEHYQDNISRVCEILRRLTGRAQAWAAPYLDGDLPLPDDYELFCQDLKEVVQDPNSFAEYHAVVTCPLPLASSQLPVAPQLPVVRQYLARFLEGLALDMGTAPRSLPAAMATPAVSGSNSVSRSALFEQQLTKESTPGPKEPPVLPSSTCSSKPGPVEPASSQPEEAAPTPVPRLSESANPPAQRPDPAHPGGPKPQKTEEEVLETEGDQEVSLGTPQEVVEAPETPGEPPLSPGF

Variants of: B1
Settings: with vdac1_human VDAC1, P21796
vdac1_human VDAC1, P21796, sequence (P21796 whole entry): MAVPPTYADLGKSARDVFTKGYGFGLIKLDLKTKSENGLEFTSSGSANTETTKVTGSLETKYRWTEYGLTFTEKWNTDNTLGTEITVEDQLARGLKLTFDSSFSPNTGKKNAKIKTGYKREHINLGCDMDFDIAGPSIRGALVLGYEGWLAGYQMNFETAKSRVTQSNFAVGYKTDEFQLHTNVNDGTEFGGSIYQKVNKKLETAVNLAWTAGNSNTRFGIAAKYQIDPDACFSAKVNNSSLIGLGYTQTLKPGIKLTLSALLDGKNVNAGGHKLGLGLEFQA

Row | Variant | effect of a mutation on the interaction
1 | L118A | decreasing interaction strength
